Data taken from patent publication US20220340673A1 (HARBOUR BIOMED SUZHOU, published 2022).

How the values were obtained:
[1] = target: T1, human BCMA on cells (HEK293T/huBCMA; NCI-H929) (human, UniProt Q02223 1-184); assay: FACS on NCI-H929 cell line [B]
T1 construct: whole, on cells; also called human BCMA molecules on NCI-H929 cell line
T1 sequence (looked up): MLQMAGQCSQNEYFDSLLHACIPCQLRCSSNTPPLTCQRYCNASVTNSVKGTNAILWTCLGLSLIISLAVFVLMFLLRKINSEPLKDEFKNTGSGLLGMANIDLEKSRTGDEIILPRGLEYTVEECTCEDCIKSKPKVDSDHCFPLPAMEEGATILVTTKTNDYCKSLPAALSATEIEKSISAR
Method: To study the binding activity of the BCMA arm of the BCMA×CD3 bispecific antibody to human BCMA, NCI-H929 cell line with highly expressed BCMA was used for binding experiments with human BCMA at cellular level. Briefly, NCI-H929 cell suspensions were collected. The cell density was adjusted to 1×10⁶ cells/mL, and the cells were inoculated in 96 well V-bottom plates at 100 μL cells/well (Corning, Cat#: 3894), followed by the addition of test antibodies at 100 μL/well, which is gradient diluted at 3 folds of the concentration with 2 folds of the final concentration. Cells were incubated at 4° C. for 2 hours in the dark. Afterwards, cells were washed twice with 100 μL/well of pre-cooled PBS, centrifuged at 500 g for 5 min at 4° C., and followed by discarding the supernatant. 100 μL/well of fluorescent secondary antibody (Alexa Fluor 488-conjugated AffiniPure Goat Anti-Human IgG, Fcγ Fragment Specific, Jackson, Cat#:109-545-06, 1:500 dilution) was added and incubated at 4° C. for 1 hour in the dark. Cells were washed twice with 100 μL/well of pre-cooled PBS, centrifuged at 500 g, 4° C. for 5 min, and followed by discarding the supernatant. Finally, the cells were resuspended with 200 μL/well of pre-cooled PBS, and the fluorescence luminescence signal values were read by BD FACS CANTOII.

[2] = target: T1, human BCMA on cells (HEK293T/huBCMA; …); assay: FACS on HEK293T cell strain overexpressing human BCMA [C]
Description: To study the in vitro binding activity of the BCMA arm of the BCMA×CD3 bispecific antibody, HEK293T cell strain overexpressing human BCMA (HEK293T/huBCMA) and HEK293T cell strain overexpressing cynomolgus monkey BCMA (HEK293T/cynoBCMA) were used for antibody binding experiments at cellular level. Briefly, HEK293T/huBCMA cells and HEK293T/cynoBCMA cells were digested and resuspended with DMEM complete medium. The cell density of the two was adjusted to 1×10⁶ cells/mL, respectively. Cells were inoculated at 100 μL cells/well in a 96 well V-bottom plate (Corning, Cat#: 3894), followed by the addition of test antibodies at 100 μL/well, which is gradient diluted at 3 folds of the concentration with 2 folds of the final concentration. Cells were incubated at 4° C. for 1 hour in the dark. Afterwards, the cells were washed twice with 100 μL/well of pre-cooled PBS, centrifuged at 500 g for 5 min at 4° C., and followed by discarding the supernatant. 100 μL/well of fluorescent secondary antibody (Alexa Fluor 488-conjugated AffiniPure Goat Anti-Human IgG, Fcγ Fragment Specific, Jackson, Cat#: 109-545-06, 1:500 dilution) was added and incubated for 30 min at 4° C. in the dark. […] Finally, the cells were resuspended with 200 μL/well of pre-cooled PBS, and the fluorescence luminescence signal values were read by BD FACS CANTOII. […]

[3] = target: T2, cynomolgus monkey BCMA on cells (HEK293T/cynoBCMA) (cynomolgus monkey, UniProt A0A2K5UD97 1-183); assay: FACS on HEK293T cell strain overexpressing cynomolgus monkey BCMA [B), (C]
T2 construct: whole, on cells
T2 sequence (A0A2K5UD97 entry or part of it): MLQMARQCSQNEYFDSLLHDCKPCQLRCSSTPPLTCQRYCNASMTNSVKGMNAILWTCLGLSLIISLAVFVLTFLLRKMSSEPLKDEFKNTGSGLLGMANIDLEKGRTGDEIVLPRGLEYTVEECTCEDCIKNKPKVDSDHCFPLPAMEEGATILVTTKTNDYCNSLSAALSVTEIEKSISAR

[4] = target: T3, cynomolgus monkey CD3 on cynomolgus monkey T cells (cynomolgus monkey, UniProt Q95LI5 22-198); assay: FACS on cynomolgus monkey T cells [B]
T3 construct: whole, on cells; CD3 complex on primary T cells
T3 sequence (Q95LI5 22-198): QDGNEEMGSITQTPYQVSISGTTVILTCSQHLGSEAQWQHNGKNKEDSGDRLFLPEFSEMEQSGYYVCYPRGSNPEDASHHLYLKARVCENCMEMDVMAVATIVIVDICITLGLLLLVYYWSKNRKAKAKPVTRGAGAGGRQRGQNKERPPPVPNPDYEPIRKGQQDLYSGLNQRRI
Method: To study the in vitro binding activity of the CD3 arm of the BCMA×CD3 bispecific antibody, human and cynomolgus monkey T cells were used for antibody binding experiments at cellular level. Briefly, the density of human and cynomolgus monkey T cells was adjusted to 1×10⁶ cells/mL, respectively. Cells were inoculated at 100 μL cells/well in a 96 well V-bottom plate (Corning, Cat#: 3894), followed by the addition of test antibodies at 100 μL/well, which is gradient diluted at 3 folds of the concentration with 2 folds of the final concentration. Cells were incubated at 4° C. for 1 hour in the dark. Afterwards, cells were washed twice with 100 μL/well of pre-cooled PBS, centrifuged at 500 g in 4° C. for 5 min, and followed by discarding the supernatant. 100 μL/fluorescent secondary antibody (Alexa Fluor 488-conjugated AffiniPure Goat Anti- Human IgG, Fcγ Fragment Specific, Jackson, Cat#:109-545-06, 1: 500 dilution) was added and incubated for 30 min at 4° C. in the dark. Cells were washed twice with 100 μL/well of pre-cooled PBS, centrifuged at 500 g, 4° C. for 5 min, and followed by discarding the supernatant. Finally, the cells were resuspended with 200 μL/well of pre-cooled PBS, and the fluorescence luminescence signal values were read by BD FACS CANTOII.

B1: positive control 2, PR002199 (anti-BCMA (TNB308902) x CD3 (TNB_F2B) bispecific antibody) (bispecific antibody, human IgG1, kappa, L234A L235A)
heavy 1: EVQLVESGGGLVQPGRSLRLSCAASGFTFDDYAMHWVRQAPGKGLEWVSGISWNSGSIGYADSVKGRFTISRDNAKNSLYLQMNSLRAEDTALYYCAKDSRGYGDYRLGGAYWGQGTLVTVSSASTKGPSVFPLAPSSKSTSGGTAALGCLVKDYFPEPVTVSWNSGALTSGVHTFPAVLQSSGLYSLSSVVTVPSSSLGTQTYICNVNHKPSNTKVDKKVEPKSCDKTHTCPPCPAPEAAGGPSVFLFPPKPKDTLMISRTPEVTCVVVDVSHEDPEVKFNWYVDGVEVHNAKTKPREEQYNSTYRVVSVLTVLHQDWLNGKEYKCKVSNKALGAPIEKTISKAKGQPREPQVYTLPPCREEMTKNQVSLWCLVKGFYPSDIAVEWESNGQPENNYKTTPPVLDSDGSFFLYSKLTVDKSRWQQGNVFSCSVMHEALHNHYTQKSLSLSPGK
light: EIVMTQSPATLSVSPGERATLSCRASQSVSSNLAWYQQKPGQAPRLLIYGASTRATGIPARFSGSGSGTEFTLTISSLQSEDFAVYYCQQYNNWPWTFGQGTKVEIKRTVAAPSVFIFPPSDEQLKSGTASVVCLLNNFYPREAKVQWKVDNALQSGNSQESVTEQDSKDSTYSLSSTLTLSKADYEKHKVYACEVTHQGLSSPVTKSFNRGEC
heavy 2: EVQLLESGGGLVQPGGSLRLSCAASGFTVSSYGMSWVRQAPGKGPEWVSGIRGSDGSTYYADSVKGRFTISRDNSKNTLYLQMNSLRAEDTAVYYCAKQGENDGPFDHRGQGTLVTVSSGGGGSEVQLLESGGGLVQPGGSLRLSCAASGFTVSSYGMSWVRQAPGKGPEWVSGIRGSDGSTYYADSVKGRFTISRDNSKNTLYLQMNSLRAEDTAVYYCAKQGENDGPFDHRGQGTLVTVSSASEPKSSDKTHTCPPCPAPEAAGGPSVFLFPPKPKDTLMISRTPEVTCVVVDVSHEDPEVKFNWYVDGVEVHNAKTKPREEQYNSTYRVVSVLTVLHQDWLNGKEYKCKVSNKALGAPIEKTISKAKGQPREPQVCTLPPSREEMTKNQVSLSCAVKGFYPSDIAVEWESNGQPENNYKTTPPVLDSDGSFFLVSKLTVDKSRWQQGNVFSCSVMHEALHNHYTQKSLSLSPGK
notes: Three chains: HC1 (anti-CD3 heavy), LC (anti-CD3 kappa light), HC2 (two tandem anti-BCMA VH, then Fc)
Which results are given for B1?
EC50 [1]: 8.7 nM; EC50 [2]: 0.602 nM; binding result [3]: no binding (tested: 100 nM); binding result [4]: no binding (tested: about 300 nM)
